Measured values reported in patent US20160083712A1 (UNIVERSITY OF LEICESTER, published 2016).

Molecular target: the molecule itself
Test: crystal structure, PISA analysis of assemblies

B1: CSN51-257 wild type (human CSN5 residues 1-257, GST tag cleaved off) (enzyme)
chain: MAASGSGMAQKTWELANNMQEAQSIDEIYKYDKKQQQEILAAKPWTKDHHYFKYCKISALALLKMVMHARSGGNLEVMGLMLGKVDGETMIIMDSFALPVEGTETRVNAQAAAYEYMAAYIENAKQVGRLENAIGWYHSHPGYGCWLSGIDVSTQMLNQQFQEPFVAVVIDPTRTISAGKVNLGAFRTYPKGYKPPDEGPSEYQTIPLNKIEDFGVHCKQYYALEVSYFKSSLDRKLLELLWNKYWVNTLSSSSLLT
notes: Purified after cleavage by GST-3C protease; Crystallised form (PDB 4F70; SeMet-labelled for the crystal); Monomer-dimer equilibrium in solution; also called WT protein
**Q.** Does B1 bind?
**A.** Result: binds
